# From US20220119523A1, “TREATMENT OF CUTANEOUS T CELL LYMPHOMA WITH TARGETING OF CD47 PATHWAY” (The Board of Trustees of the Leland Stanford Junior …, priority 2019, published 2022)
# What was measured:
# [1] = system: newly diagnosed AML patients 65 years or older; settings: 75 mg/m^2 per day SC for 7 consecutive days per 28-day cycle, at least 6 cycles; conventional care regimens 6.5 months; cited from earlier work
# HuT78 tumor cells = assay: Xenograft tumor model, HuT78 cells in NSG mice; format: in vivo; settings: 250 μg intraperitoneal every other day, vs PBS
# Protocol: (§1) Mice. 6-8 week old NSG (NOD.Cg-Prkdcscid Il2rgtm1Wjl/SzJ) mice were used.
# (§2) Xenograft Tumor Models. […] For all treatments, antibodies where administered by intraperitoneal injection (100 μl) as follows: PBS and […] (250 μg) every other day. Tumor volume and survival was monitored.
# HH = assay: In vitro phagocytosis assay, HH cell line; format: cell-based, human; settings: HH cells; macrophage from NOD scid gamma mice (NSG); vs IgG4 control antibody; FIG. 2A-2B
# Protocol: (§3) Cancer Cells. HH (CTCL lymphoblast ATCC); HuT78 (Sezary Syndrome CTCL, ATCC); HuT102 (Mycosis Fungoides CTCL, ATCC); and MJ (Mycosis Fungoides CTCL, ATCC) were cultured in RPMI (ThermoFisher S.) (DLD1), EMEM (ThermoFisher S.) (CACO-2, LS174T), McCoy's 5A (ThermoFisher S.) (HT29, HCT116), or Leibovitz's L-15 (ThermoFisher S.) (SW48, SW 620) supplemented with 10% fetal bovine serum (Omega Scientific), 100 U/mL penicillin and 100 μg/mL streptomycin (ThermoFisher S.)
# In Vitro Phagocytosis Assay. Peripheral blood mononuclear cells were enriched by density gradient centrifugation and monocytes were purified with anti-CD14 microbeads (Miltenyi) and differentiated to macrophages by culture for 7-10 days in IMDM+GlutaMax (Invitrogen) supplemented with 10% AB-Human Serum (Invitrogen) and 100 U/mL penicillin and 100 μg/mL streptomycin (Invitrogen). Phagocytosis assays were performed by co-culture of 50,000 macrophages with 100,000 CTCL tumor cells for 2 hours, then analyzed using an LSRFortessa cell analyzer with high throughput sampler (BD Biosciences). Antibodies used for treatment included: IgG4 isotype control, anti-CD47—clone magrolimab (Stanford). Macrophages were identified by flow cytometry using anti-CD206 antibody. […] Phagocytosis was evaluated as the percentage of GFP+ macrophages and was normalized to the maximal response by each independent donor against each cell line.
# HH tumor cells = assay: Xenograft tumor model, HH cells in NSG mice; format: in vivo; settings: 250 μg intraperitoneal every other day, vs PBS
# Protocol: as §1, §2
# CTCL tumor cells = assay: In vitro phagocytosis assay, co-culture of macrophages with CTCL tumor cells; format: cell-based, human; settings: for phagocytosis (percentage of GFP+ macrophages): 2 hours co-culture
# Protocol: as §3
# In Vitro Phagocytosis Assay. Peripheral blood mononuclear cells were enriched by density gradient centrifugation and monocytes were purified with anti-CD14 microbeads (Miltenyi) and differentiated to macrophages by culture for 7-10 days in IMDM+GlutaMax (Invitrogen) supplemented with 10% AB-Human Serum (Invitrogen) and 100 U/mL penicillin and 100 μg/mL streptomycin (Invitrogen). Phagocytosis assays were performed by co-culture of 50,000 macrophages with 100,000 CTCL tumor cells for 2 hours, then analyzed using an LSRFortessa cell analyzer with high throughput sampler (BD Biosciences). Antibodies used for treatment included: IgG4 isotype control, anti-CD47—clone magrolimab (Stanford). Macrophages were identified by flow cytometry using anti-CD206 antibody. Dead cells were excluded from the analysis by staining with DAPI (Sigma). Phagocytosis was evaluated as the percentage of GFP+ macrophages and was normalized to the maximal response by each independent donor against each cell line.
# HUT78 = assay: In vitro phagocytosis assay, HUT78 cell line; format: cell-based, human; settings: HUT78 cells; macrophage from NOD scid gamma mice (NSG); vs IgG4 control antibody; FIG. 2A-2B
molecule,measurement,setting,value
Nc1ncn([C@@H]2O[C@H](CO)[C@@H](O)[C@H]2O)c(=O)n1 [azacitidine],Median OS,[1],10.4 months
"Magrolimab: monoclonal antibody designed to block CD47; specifically binds human CD47; humanized 5F9 with IgG4 (antibody, chains of the INN, looked up, V domains shown) VH: QVQLVQSGAEVKKPGASVKVSCKASGYTFTNYNMHWVRQAPGQRLEWMGTIYPGNDDTSYNQKFKDRVTITADTSASTAYMELSSLRSEDTAVYYCARGGYRAMDYWGQGTLVTVSS VL: DIVMTQSPLSLPVTPGEPASISCRSSQSIVYSNGNTYLGWYLQKPGQSPQLLIYKVSNRFSGVPDRFSGSGSGTDFTLKISRVEAEDVGVYYCFQGSHVPYTFGQGTKLEIK",tumor volume,HuT78 tumor cells; FIG. 5A,reduced
same,survival,HuT78 tumor cells; FIG. 5B,improved
same,phagocytosis (percent of phagocytosis / percent of maximum phagocytosis),HH,increased phagocytosis
same,tumor volume,HH tumor cells; FIG. 4A,reduced
same,survival,HH tumor cells; FIG. 4B,improved
same,phagocytosis (percentage of GFP+ macrophages),CTCL tumor cells; human macrophages (FIG. 2B),significant increase in phagocytosis
same,phagocytosis (percentage of GFP+ macrophages),CTCL tumor cells; mouse macrophages (FIG. 2A),significant increase in phagocytosis
same,phagocytosis (percent of phagocytosis / percent of maximum phagocytosis),HUT78,increased phagocytosis
"anti-CCR4: antibody that corresponds to mogamulizumab, a defucosylated anti-CCR4 humanized IgG1 antibody binding the N-terminal domain of CCR4 (antibody, chains of the INN, looked up, V domains shown) VH: EVQLVESGGDLVQPGRSLRLSCAASGFIFSNYGMSWVRQAPGKGLEWVATISSASTYSYYPDSVKGRFTISRDNAKNSLYLQMNSLRVEDTALYYCGRHSDGNFAFGYWGQGTLVTVSS VL: DVLMTQSPLSLPVTPGEPASISCRSSRNIVHINGDTYLEWYLQKPGQSPQLLIYKVSNRFSGVPDRFSGSGSGTDFTLKISRVEAEDVGVYYCFQGSLLPWTFGQGTKVEIK","phagocytosis, combination of anti-CD47 and anti-CCR4","CTCL tumor cells; FIG. 3A-3B, combined antibodies",synergizes with anti-CD47 antibody
same,"phagocytosis, antibody by itself","CTCL tumor cells; FIG. 3A-3B, single agent",little or no effect on phagocytosis
